The target in assay [1] is GluA1(E809W) with a C-terminal GFP tag (rat). The assay is described as follows: SEC. Background: In gel filtration, larger molecules generally elute earlier.
In assay [2] the target is GluA1(L795W) with a C-terminal GFP tag (rat). As to the kind of experiment: SEC.
The target of assay [3] is GluA2(Q)(A806W) with a C-terminal GFP tag (rat). As to the kind of experiment: SEC.
Assay [4] addresses GluA2(Q)(E813W) with a C-terminal GFP tag (rat). As to the kind of experiment: SEC.
Assay [5] deals with GluA2(Q)(G802W) with a C-terminal GFP tag (rat). As to the kind of experiment: SEC.
Assay [6] addresses GluA2(Q)(L811W) with a C-terminal GFP tag (rat). As to the kind of experiment: SEC.
For assay [7], the target named is GluA2(Q)(V795W) with a C-terminal GFP tag (rat). As to the kind of experiment: SEC.
The target of another assay is GluA2(R)(E813W) (rat). As to the kind of experiment: native gel or EMSA.
A further assay has as its target GluA2(R)(G802W) (rat). As to the kind of experiment: native gel or EMSA. For orientation: Mobility shift assays separate free from complexed probe on a gel.
The next assay concerns the target GluA2(R)(L811W) (rat). As to the kind of experiment: native gel or EMSA.
The target of a further assay is GluA2(R)(V795W) (rat). The assay is described as follows: native gel or EMSA.
For assay [8], the target named is GluA2(R)-ΔM4, untagged (rat). The assay is described as follows: native gel or EMSA.
A further assay deals with HA-GluA2(R)-ΔM4 (rat). As to the kind of experiment: native gel or EMSA.
The target in assay [9] is HA-tagged wild-type GluA2(R) (rat). The assay is described as follows: native gel or EMSA.
The target of assay [10] is wild-type GluA1 with a C-terminal GFP tag (rat). The assay is described as follows: SEC.
The target in assay [11] is wild-type GluA2(Q) with a C-terminal GFP tag (rat). As to the kind of experiment: SEC.
The target in assay [12] is wild-type GluA2(R), untagged (rat). The assay is described as follows: native gel or EMSA.

We go through 17 substances from PMC3714855.

Several values for one entry are separate records, joined by “and”; a condition that tells them apart may be missing. Identical values can stand only once.

With “GluA1(E809W) with a C-terminal GFP tag (receptor)”, in [1], the stoichiometry N (in general, a count of units in the complex or per binding partner) worked out at 2.

In assay [2], “GluA1(L795W) with a C-terminal GFP tag (receptor)” returned a stoichiometry N of 2.

With “GluA2(Q)(A806W) with a C-terminal GFP tag (receptor)”, the stoichiometry N in assay [3] was determined as 2.

In turn, “GluA2(Q)(E813W) with a C-terminal GFP tag (receptor)” came in with a stoichiometry N in assay [4] of 2.

With “GluA2(Q)(G802W) with a C-terminal GFP tag (receptor)”, the stoichiometry N in assay [5] turned out to be 2.

“GluA2(Q)(L811W) with a C-terminal GFP tag (receptor)” displayed a stoichiometry N in assay [6] of 4.

On to “GluA2(Q)(V795W) with a C-terminal GFP tag (receptor)”, for which, in assay [7], the stoichiometry N was 2.

As to GluA2(R)(E813W) (receptor), the stoichiometry N with GluA2(R)(E813W) (rat) is 2.

Consider GluA2(R)(G802W) (receptor), for which the stoichiometry N in the assay with GluA2(R)(G802W) (rat) worked out at 2.

As to GluA2(R)(L811W) (receptor), in the assay with GluA2(R)(L811W) (rat), the stoichiometry N is 4 and 2.

For GluA2(R)(V795W) (receptor), the stoichiometry N in the assay with GluA2(R)(V795W) (rat) was found to be 2.

“GluA2(R)-ΔM4, untagged (domain or fragment)” displayed a stoichiometry N in assay [8] of 2.

Turning to HA-GluA2(R)-ΔM4 (domain or fragment), the stoichiometry N with HA-GluA2(R)-ΔM4 (rat) is 2.

HA-tagged wild-type GluA2(R) (receptor): the stoichiometry N in assay [9] is 4 and 2.

“wild-type GluA1 with a C-terminal GFP tag (receptor)” gave a stoichiometry N in assay [10] of 4.

In assay [11], “wild-type GluA2(Q) with a C-terminal GFP tag (receptor)” yielded a stoichiometry N of 4.

On to wild-type GluA2(R), untagged (receptor), for which the stoichiometry N in assay [12] is 4 and 2.
